The source of these data is PMC9896449.

Test [1] addresses ShAb01H02K (knob-in-hole heterodimer of ShAb01-Fc and ShAb02-Fc) (nurse shark (Ginglymostoma cirratum)). In words: BLI. A general note: BLI is a label-free optical method that tracks binding on a fibre tip over time.
In test [2] the target is BiShAb0201 (ShAb02 VNAR - (GGGGS)5 - ShAb01 VNAR - human IgG1 Fc) (nurse shark (Ginglymostoma cirratum)). In words: BLI.

What is called Kd is the constant that tells how readily two partners part at equilibrium. Low values mean higher affinity, high ones lower affinity. The koff is the rate constant with which the complex falls apart. What is called kon is a measure of how fast the partners come together. Read a low kon as slower complex formation.

In the case of “SARS-CoV-2 RBD B.1.1.529.2, Omicron BA.2 (from UniProt P0DTC2 331-527) (domain or fragment)”, in test [1], the Kd is 24.1 nM, the koff was determined as 0.00186 s⁻¹ and the kon came to 77000 M⁻¹ s⁻¹. Also, in test [2], the Kd turned out to be 33.2 nM, the koff came to 0.000749 s⁻¹ and the kon came out at 22600 M⁻¹ s⁻¹.

For “SARS-CoV-2 RBD Omicron BA.4/5 (from UniProt P0DTC2 331-527) (domain or fragment)”, in test [1], the Kd is 5.6 nM, the koff is 0.000692 s⁻¹ and the kon is 123000 M⁻¹ s⁻¹. In addition, in test [2], the Kd came out at 14.9 nM, the off-rate constant (koff) is 0.000767 s⁻¹ and the kon amounted to 51500 M⁻¹ s⁻¹.

As for “SARS-CoV-2 RBD B.1.1.529.2.12.1, Omicron BA.2.12.1 (from UniProt P0DTC2 331-527) (domain or fragment)”, in test [1], the Kd is 17.4 nM, the off-rate (koff) came to 0.00171 s⁻¹ and the kon was determined as 98500 M⁻¹ s⁻¹. In test [2], this substance came in with a Kd of 46.9 nM, a koff of 0.000922 s⁻¹ and a kon of 19700 M⁻¹ s⁻¹.

Regarding “SARS-CoV-2 RBD B.1.1.529, Omicron BA.1 (from UniProt P0DTC2 331-527) (domain or fragment)”, in test [1], the Kd was 24.5 nM, the koff came out at 0.00175 s⁻¹ and the kon stood at 71300 M⁻¹ s⁻¹. In test [2], the Kd stood at 15.1 nM, the koff worked out at 0.00154 s⁻¹ and the kon stood at 102000 M⁻¹ s⁻¹.
